In patent publication US20040147432A1 (MERCK, published 2004):
Like-named read-outs stand apart in the source and are kept apart here. Bridges are numbered along the chain shown (N, C = ends). Where no end group is shown, it is not given here. [ ]: non-standard residue; d: D form. Arg(NO2) = N=C(NCCC[C@H](N)C(=O)O)N[N+](=O)[O-]

What was measured:
[1] = target: T1, human melanin concentrating hormone type 2 receptor (MCH-2R) (human, UniProt Q969V1 1-340); assay: SPA competition with [125I]-human MCH (Phe13, Tyr19) on receptor membranes
T1 construct: also called MCH-R2
Experimental: (§1) For the SPA-based assay, WGA-PVT beads (NEN Life Sciences Products) were resuspended in Dulbecco's PBS with calcium and magnesium (500 mg beads in 4 ml PBS). […] The suspension was mixed gently for 20 minutes, 12.3 ml of assay buffer and protease inhibitors were added (final concentration given): 2 μg/ml leupeptin, 10 μM phosphoramidon, 40 μg/ml bacitracin, 5 μg/ml aprotinin, 0.1 mM Pefabloc.
(§2) Coated beads were kept on ice until use. […] Binding reactions were allowed to proceed at room temperature for 3 hours. Quantitation was performed by scintillation counting (TopCount device).

human MCH-1R [2] = target: T2, human MCH-1R (human, UniProt Q99705 1-353); assay: cell-based or functional assay
[3] = target: T1, human melanin concentrating hormone …; assay: cell-based or functional assay
human MCH-1R [4] = target: T2, human MCH-1R; assay: cell-based or functional assay; remark: listed apart in the source
[5] = target: T1, human melanin concentrating hormone …; assay: cell-based or functional assay; remark: listed apart in the source
human MCH-1R [6] = target: T2, human MCH-1R; assay: cell-based or functional assay; remark: listed apart in the source
[7] = target: T1, human melanin concentrating hormone …; assay: cell-based or functional assay; remark: listed apart in the source
human MCH-1R [8] = target: T2, human MCH-1R; assay: SPA competition with [125I]-human MCH (Phe13, Tyr19) on receptor membranes
Experimental: as §1, §2

[9] = target: T1, human melanin concentrating hormone …; assay: as above; remark: listed apart in the source
Experimental: as §1, §2

T1 sequence (Q969V1 whole entry, form in doubt): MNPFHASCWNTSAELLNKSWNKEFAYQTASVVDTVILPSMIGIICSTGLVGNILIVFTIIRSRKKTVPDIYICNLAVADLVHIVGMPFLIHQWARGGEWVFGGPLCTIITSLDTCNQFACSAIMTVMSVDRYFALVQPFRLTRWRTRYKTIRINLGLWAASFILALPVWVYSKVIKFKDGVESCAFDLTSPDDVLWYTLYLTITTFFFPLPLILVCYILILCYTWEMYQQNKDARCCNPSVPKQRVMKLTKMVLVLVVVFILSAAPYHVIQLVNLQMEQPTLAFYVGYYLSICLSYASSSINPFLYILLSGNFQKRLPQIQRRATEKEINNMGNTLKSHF
T2 sequence (Q99705 whole entry, form in doubt): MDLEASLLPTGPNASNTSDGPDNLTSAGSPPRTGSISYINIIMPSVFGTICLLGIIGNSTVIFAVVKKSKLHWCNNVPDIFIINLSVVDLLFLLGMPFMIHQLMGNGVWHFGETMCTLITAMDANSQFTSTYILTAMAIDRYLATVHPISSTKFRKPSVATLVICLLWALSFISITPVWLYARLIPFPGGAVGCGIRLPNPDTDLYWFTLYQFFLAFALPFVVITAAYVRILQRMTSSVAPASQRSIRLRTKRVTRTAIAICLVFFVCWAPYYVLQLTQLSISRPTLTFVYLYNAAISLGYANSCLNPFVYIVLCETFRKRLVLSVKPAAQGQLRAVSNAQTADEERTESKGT

With Ac-RCML[dA][Arg(NO2)]VYRPC-NH2 (disulfide 2-11 (inferred), also called D-Ala^10, Arg(NO2)^11) [SEQ. ID. NO. 37] the IC50 [1] was 490 nM, the Activation % at 10 µM (aequorin functional assay) (human MCH-1R [2]) was 0.1% and the EC50 (aequorin functional assay) (human MCH-1R [2]) was > 10000 nM. The “Activation % at 10 µM (aequorin functional assay)” value (from here on “Activation % at 10 µM”) [3] was 34% and the “EC50 (aequorin functional assay)” value [3] was 260 nM.

In the case of XCMLGRVYRPC (not fully specified; (?NH2)-Arg at position 6) [SEQ. ID. NO. 40], the “Activation % at 10 µM” value (human MCH-1R [4]) is reported as 49% and the “Activation % at 10 µM” value [5] is reported as 103%.

B1: SEQ. ID. NO. 57 (peptide)
peptide: DFDMLRCMLGRVFRPCYQV
modifications: disulfide 7-16
notes: label prints Tyr^17 while the radioligand is Phe^13, Tyr^19; also called Phe^13, Tyr^17
With B1 the “Activation % at 10 µM” value (human MCH-1R [6]) was 97%, the “EC50 (aequorin functional assay)” value (human MCH-1R [6]) was 40 nM and the “Activation % at 10 µM” value [7] was 92%. The “EC50 (aequorin functional assay)” value [7] was 1.5 nM, the IC50 (human MCH-1R [8]) was 0.6 nM and the IC50 [9] was 0.07 nM.

In the case of DFAMLRCMLGRVYRPCWQV (disulfide 7-16, also called Ala^3) [SEQ. ID. NO. 43], the “Activation % at 10 µM” value (human MCH-1R [6]) is reported as 97%, the “EC50 (aequorin functional assay)” value (human MCH-1R [6]) is reported as 30.2 nM and the “Activation % at 10 µM” value [7] is reported as 95%. The “EC50 (aequorin functional assay)” value [7] was 57.2 nM, the IC50 (human MCH-1R [8]) was 0.5 nM and the IC50 [9] was 1.2 nM.

With DFDMLRCMLGRVYRACWQV (disulfide 7-16, also called Ala^15) [SEQ. ID. NO. 53] the “Activation % at 10 µM” value (human MCH-1R [6]) was 99%, the “EC50 (aequorin functional assay)” value (human MCH-1R [6]) was 34.7 nM and the “Activation % at 10 µM” value [7] was 96%. The “EC50 (aequorin functional assay)” value [7] was 84.2 nM, the IC50 (human MCH-1R [8]) was 1.9 nM and the IC50 [9] was 19 nM.

With DFDALRCMLGRVYRPCWQV (disulfide 7-16, also called Ala^4) [SEQ. ID. NO. 44] the “Activation % at 10 µM” value (human MCH-1R [6]) was 97%, the “EC50 (aequorin functional assay)” value (human MCH-1R [6]) was 12.7 nM and the “Activation % at 10 µM” value [7] was 100%. For the same binder, the “EC50 (aequorin functional assay)” value [7] was 38.9 nM, the IC50 (human MCH-1R [8]) was 0.5 nM and the IC50 [9] was 2.4 nM.

In the case of DFDMLRCMLGRVYRPCWQA (disulfide 7-16, also called Ala^19) [SEQ. ID. NO. 56], the “Activation % at 10 µM” value (human MCH-1R [6]) is reported as 100%, the “EC50 (aequorin functional assay)” value (human MCH-1R [6]) is reported as 17.4 nM and the “Activation % at 10 µM” value [7] is reported as 99%. The “EC50 (aequorin functional assay)” value [7] was 58.9 nM, the IC50 (human MCH-1R [8]) was 0.4 nM and the IC50 [9] was 8.7 nM.

For DFDMLRCMLGRVYRPCAQV (disulfide 7-16, also called Ala^17) [SEQ. ID. NO. 54], the “Activation % at 10 µM” value (human MCH-1R [6]) was 100%, the “EC50 (aequorin functional assay)” value (human MCH-1R [6]) was 6.8 nM and the “Activation % at 10 µM” value [7] was 95%. For the same binder, the “EC50 (aequorin functional assay)” value [7] was 54.2 nM, the IC50 (human MCH-1R [8]) was 0.1 nM and the IC50 [9] was 5.1 nM.

With DFDMLRCMLGRVARPCWQV (disulfide 7-16, also called Ala^13) [SEQ. ID. NO. 51] the “Activation % at 10 µM” value (human MCH-1R [6]) was 20%, the “EC50 (aequorin functional assay)” value (human MCH-1R [6]) was 2300 nM and the “EC50 (aequorin functional assay)” value [7] was > 1000 nM. The IC50 (human MCH-1R [8]) was 253 nM and the IC50 [9] was 670 nM.

With DFDMLRCMLGRVYRPCWAV (disulfide 7-16, also called Ala^18) [SEQ. ID. NO. 55] the “Activation % at 10 µM” value (human MCH-1R [6]) was 99%, the “EC50 (aequorin functional assay)” value (human MCH-1R [6]) was 36.1 nM and the “Activation % at 10 µM” value [7] was 97%. For the same binder, the “EC50 (aequorin functional assay)” value [7] was 80.8 nM, the IC50 (human MCH-1R [8]) was 0.7 nM and the IC50 [9] was 9.5 nM.

In the case of DFDMLRCMAGRVYRPCWQV (disulfide 7-16, also called Ala^9) [SEQ. ID. NO. 48], the “Activation % at 10 µM” value (human MCH-1R [6]) is reported as 96%, the “EC50 (aequorin functional assay)” value (human MCH-1R [6]) is reported as 22 nM and the “Activation % at 10 µM” value [7] is reported as 92%. For the same binder, the “EC50 (aequorin functional assay)” value [7] was 95.7 nM, the IC50 (human MCH-1R [8]) was 0.9 nM and the IC50 [9] was 9.5 nM.

For DFDMLRCALGRVYRPCWQV (disulfide 7-16) [SEQ. ID. NO. 47], the “Activation % at 10 µM” value (human MCH-1R [6]) was 56%, the “EC50 (aequorin functional assay)” value (human MCH-1R [6]) was 731 nM and the “Activation % at 10 µM” value [7] was 94%. The “EC50 (aequorin functional assay)” value [7] was 125 nM, the IC50 (human MCH-1R [8]) was 40.1 nM and the IC50 [9] was 40 nM.

With DFDMLRCMLGRVYAPCWQV (disulfide 7-16, also called Ala^14) [SEQ. ID. NO. 52] the “Activation % at 10 µM” value (human MCH-1R [6]) was 97%, the “EC50 (aequorin functional assay)” value (human MCH-1R [6]) was 28.3 nM and the “Activation % at 10 µM” value [7] was 81%. For the same binder, the “EC50 (aequorin functional assay)” value [7] was 186 nM, the IC50 (human MCH-1R [8]) was 1.4 nM and the IC50 [9] was 62 nM.

For DFDMLACMLGRVYRPCWQV (disulfide 7-16, also called Ala^6) [SEQ. ID. NO. 46], the “Activation % at 10 µM” value (human MCH-1R [6]) was 81%, the “EC50 (aequorin functional assay)” value (human MCH-1R [6]) was 161 nM and the “Activation % at 10 µM” value [7] was 76%. The “EC50 (aequorin functional assay)” value [7] was 853 nM, the IC50 (human MCH-1R [8]) was 4.5 nM and the IC50 [9] was 200 nM.

For DFDMLRCMLGAVYRPCWQV (disulfide 7-16) [SEQ. ID. NO. 49], the “Activation % at 10 µM” value (human MCH-1R [6]) was 24%, the “EC50 (aequorin functional assay)” value (human MCH-1R [6]) was 5240 nM and the “EC50 (aequorin functional assay)” value [7] was > 1000 nM. The IC50 (human MCH-1R [8]) was 169 nM and the IC50 [9] was 290 nM.

For DFDMLRCMLGRAYRPCWQV (disulfide 7-16, also called Ala^12) [SEQ. ID. NO. 50], the “Activation % at 10 µM” value (human MCH-1R [6]) was 95%, the “EC50 (aequorin functional assay)” value (human MCH-1R [6]) was 38.3 nM and the “Activation % at 10 µM” value [7] was 98%. The “EC50 (aequorin functional assay)” value [7] was 83.6 nM, the IC50 (human MCH-1R [8]) was 0.9 nM and the IC50 [9] was 25 nM.

For DFDMARCMLGRVYRPCWQV (disulfide 7-16, also called Ala^5) [SEQ. ID. NO. 45], the “Activation % at 10 µM” value (human MCH-1R [6]) was 96%, the “EC50 (aequorin functional assay)” value (human MCH-1R [6]) was 20.3 nM and the “Activation % at 10 µM” value [7] was 94%. The “EC50 (aequorin functional assay)” value [7] was 17.9 nM, the IC50 (human MCH-1R [8]) was 0.3 nM and the IC50 [9] was 2 nM.
